Experimental data reported in patent US7273747B2, “Cell having amplified signal transduction pathway responses and uses therefor” (Cadus Technologies, Inc., priority 1998, dated 2007).
Square brackets hold non-standard residues; d marks the D form. Ends that are not written are not given here. NMeF = CN[C@@H](Cc1ccccc1)C(=O)O; Cha = N[C@@H](CC1CCCCC1)C(=O)O; dCha = N[C@H](CC1CCCCC1)C(=O)O

Molecular target: T1, C5a receptor (Homo sapiens, UniProt P21730)
T1 construct: expressed in transfected cells; host or cells: Saccharomyces cerevisiae strain CY10103 (sibling strains CY13970/13971 and CY13974/13975), carrying gpa1(41)-Gαi2, with a FUS1p-lacZ reporter plasmid
T1 sequence (P21730 1-350): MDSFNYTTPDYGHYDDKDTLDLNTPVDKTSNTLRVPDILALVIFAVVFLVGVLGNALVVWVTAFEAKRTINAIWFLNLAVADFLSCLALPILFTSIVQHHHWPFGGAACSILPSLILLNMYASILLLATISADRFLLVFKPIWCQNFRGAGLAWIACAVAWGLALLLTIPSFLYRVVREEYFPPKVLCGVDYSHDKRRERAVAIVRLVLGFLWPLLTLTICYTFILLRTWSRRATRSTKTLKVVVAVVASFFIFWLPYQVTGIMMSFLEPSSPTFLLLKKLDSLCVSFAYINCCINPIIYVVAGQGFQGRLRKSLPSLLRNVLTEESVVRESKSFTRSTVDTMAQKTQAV
Experiment: FUS1p-lacZ β-galactosidase reporter assay in yeast expressing a heterologous C5a receptor
Type: cell-based
Details: yeast strains carrying C5a receptor plasmid and FUS1p-lacZ reporter; 4 hours incubation with varying concentrations of ChaCha
Excerpt: Yeast strains expressing heterologous GPCRs can be constructed as previously described (see e.g. WO 94/23025). In this example, to create a yeast strain expressing a heterologous GPCR and a Ste5 expression plasmid, yeast strain CY10103 (genotype MATa ste18 g6-3841 far1D1442 cyh2 tbt1-1 FUS1p-HIS3 can1 ste14::trp1::LYS2 ste3D1156 gpa1(41)-Gαi2 lys2 ura3 leu2 trp1 his3 ade2D3447 ade8D3457) was transformed by electroporation with a C5a receptor-bearing plasmid (Cp1303; genotype LEU2 PGKp-C5aR 2m-ori REP3 bla), a reporter plasmid (Cp1584; genotype bla TRP1 2m-ori FUS1p-lacZ), and plasmids that express either wild-type STE5p (Cp5373; genotype URA3 CEN6 ARSH4 bla FUS1p-STE5), a hyperactive STE5p mutant (Cp5643; genotype URA3 CEN6 ARSH4 bla FUS1p-STE5(S18R,T52M)), or no STE5p (Cp1015; genotype URA3 CEN6 ARSH4 bla). Triple transformants were selected on SC plates lacking uracil, tryptophan, and leucine. […]

## N-methyl-Phe-Lys-Pro-dCha-Cha-dArg ([NMeF]KP[dCha][Cha][dR]) [ChaCha, C5a receptor ligand; Cha is cyclohexylalanine]
  responsiveness to ligand, monitored as β-galactosidase activity (agonist activity at the C5a receptor): potent agonist
